Tests used:
BMP4 = target: T1, BMP4 (Homo sapiens, UniProt P12644); experiment: Biacore SPR, BMP run against ERFE A4-biotin on CM4 chip; format: binding; conditions: BMP 50 nM, MES-Tris buffer pH6.0, 25° C.
T1 sequence (P12644 293-408): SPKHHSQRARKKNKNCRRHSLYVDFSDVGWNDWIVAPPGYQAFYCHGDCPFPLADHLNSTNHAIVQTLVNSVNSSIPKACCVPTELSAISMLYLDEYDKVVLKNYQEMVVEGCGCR
Text: (§1) Iron absorption is tightly regulated by erythropoietic demand via control of hepcidin expression. Erythropoietin (EPO) causes hepcidin suppression, at least in part by increasing synthesis of the hormone erythroferrone (ERFE). ERFE is produced by erythroblasts after bleeding or EPO treatment, and acts on hepatocytes to suppress hepcidin expression and increase iron availability. ERFE knock out mice fail to suppress hepcidin after phlebotomy and show delayed recovery from blood loss. Furthermore, serum ERFE concentrations are increased in humans after blood loss and EPO administration, and in β-thalassemia patients. Hepcidin expression is modulated via the BMP/SMAD signalling pathway. […] We sought to determine whether the mechanism by which ERFE suppresses hepcidin is through interaction with BMP. Binding constants were measure using Biacore SPR. BMPs 2, 4, 6 at 50 nM was run against ERFE A4-biotin amine coupled to CM4 sensor chip in MES-Tris buffer pH6.0, 25° C.

BMP6 = target: T2, BMP6 (Homo sapiens, UniProt P22004); experiment: as above; format: binding
T2 sequence (P22004 375-513): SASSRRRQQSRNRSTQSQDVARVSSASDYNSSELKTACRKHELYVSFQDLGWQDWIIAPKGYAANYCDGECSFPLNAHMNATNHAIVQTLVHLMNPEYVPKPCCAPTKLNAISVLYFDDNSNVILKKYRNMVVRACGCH
Text: as §1

BMP2 = target: T3, BMP2 (Homo sapiens, UniProt P12643); experiment: as above; format: binding; conditions: BMP 50 nM, MES-Tris buffer pH6.0, 25° C.
T3 sequence (P12643 283-396): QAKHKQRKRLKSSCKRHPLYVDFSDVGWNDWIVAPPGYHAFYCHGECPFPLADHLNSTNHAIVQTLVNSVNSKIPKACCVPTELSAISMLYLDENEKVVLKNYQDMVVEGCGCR
Text: as §1

abdominal preadipocytes = experiment: Western blot of phospho- and total SMAD1/5/8 in preadipocytes; format: cell-based, Human; conditions: abdominal cells, 30 minutes
Experimental: (a) Primary pre-adipocyte isolation. Human primary pre-adipocytes were prepared by isolation from white adipose tissue (WAT) biopsies taken under local anesthetic (1% lignocaine) by needle aspiration at the level of the umbilicus (ASAT) and from the upper-, outer-quadrant of the gluteal region (GSAT). Primary preadipocytes were isolated from ASAT and GSAT biopsies by mechanically mincing using scissors, washed twice with Hanks' buffered salt solution to remove contaminating blood, and then enzymatically digested in 1 mg/ml collagenase (Roche Applied Science) in Hanks' buffered salt solution in a shaking water bath (90 rpm) at 37° C. for 45 min. The digested tissue was centrifuged at 1000 rpm for 5 min at 4° C. The pellet containing stromal-vascular cells was resuspended in Dulbecco's modified Eagle's medium/F12 Ham's nutrient mixture (v/v, 1:1) containing 17.5 mM glucose and supplemented with 10% foetal calf serum, 0.25 ng/ml fibroblast growth factor, 2 mM glutamine, 100 units/ml penicillin and 100 μg/ml streptomycin. Cell stocks of APAD and GPAD cells were prepared and stored in liquid nitrogen for future studies. […]

Huh7 cells = experiment: HAMP and ID1 qRT-PCR in Huh7 cells treated with BMPs with or without mouse ERFE; format: cell-based; conditions: a variety of different cell types
Experimental: (b) Gene expression microarray: Microarray analysis of Huh7 cells treated with mouse or human erythroferrone was carried out to test the activity of erythroferrone on the BMP/SMAD signalling pathway. Generally cell treatments were carried out according to the following protocol: Huh7 and HepG2 were cultured in Dulbecco's Modified Eagle's Medium—High Glucose (Sigma), supplemented with 10% Fetal Bovine Serum (Sigma), 1% Penicillin-Streptomycin (Sigma) and 1% L-Glutamine (Sigma), unless otherwise indicated. Cells were plated 24 h before treatments in 24-well (gene expression analysis) or 12-well (protein analysis) cell culture plates. At the time of treatment, cells were washed with PBS and fresh media was added.
(c) RNA isolation, cDNA synthesis and qRT-PCR: Suppression of several BMP-target genes: HAMP, ID1, ID3, SMAD6 and SMAD7 was further confirmed by qRT-PCR. Cells were lysed and RNA was isolated using the RNeasy Plus kit (Qiagen), followed by RNA quantification and quality assessment using Nanodrop (Thermo Fisher). cDNA was synthesized using the High Capacity RNA-to-cDNA kit (Applied Biosystems). Gene expression was assessed using quantitative real-time PCR with Taqman Gene Expression Master Mix and inventoried Taqman Gene expression assays (Applied Biosystems) specific for the genes of interest according to the manufacturer's instructions. […]

B1: ERFE: hormone erythroferrone (FAM132b); recombinant protein, species or construct not stated at the place (SPR used ERFE A4-biotin) (protein)
chain: AAGLGSPEPGAPSRSAAAAEPPPGNELPRGPGESRAGPAARPPEPTAERAHSVDPRDAWMLFVRQSDKGVNGKKRSRGKAKKLKFGLPGPPGPPGPQGPPGPIIPPEALLKEFQLLLKGAVRQRERAEPEPCTCGPAGPVAASLAPVSATAGEDDDDVVGDVLALLAAPLAPGPRAPRVEAAFLCRLRRDALVERRALHELGVYYLPDAEGAFRRGPGLNLTSGQYRAPVAGFYALAATLHVALGEPPRRGPPRPRDHLRLLICIQSRCQRNASLEAIMGLESSSELFTISVNGVLYLQMGQWTSVFLDNASGCSLTVRSGSHFSAVLLGV
Kd of ERFE binding to BMP4 (BMP4): nanomolar | Kd of ERFE binding to BMP6 (BMP6; BMP 50 nM, MES-Tris buffer pH6.0, 25° C.): nanomolar | tightness of ERFE binding among BMPs 2, 4 and 6 (BMP6; SPR (Biacore)): most tightly | Kd of ERFE binding to BMP2 (BMP2): nanomolar | BMP2-induced SMAD1/5/8 phosphorylation on addition of ERFE (abdominal preadipocytes): diminished | inhibitory action on BMP2 and 4 and BMP2/6 heterodimer (Huh7 cells): Inhibitory action is also seen
